The source of these data is the supplement of paper PMC10567573.

Sequences and labels used below:
B1: ZNF511 (parent)
chain: HLYPADFRFDKPKKSRSPASAEAP
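Note: lentivirally expressed fusions sorted by FACS into six bins by GFP to DsRed ratio, PSI derived from sequencing read proportions per bin multiplied by bin number.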

In this data set the parent is B1. The data set is described as follows: protein stability index of a GFP-peptide fusion (GPS, HEK-293T) (PSI 1-6); higher = more stable. The note with it: c terminus: a fixed tail appended.
In the case of HLYPADFRFHKPKKSRSPASAEAP [D10H], the protein stability index is 1.52.
On to HLYPADFRFGKPKKSRSPASAEAP [D10G], for which the protein stability index was 2.85.
Then HLYPADFRFFKPKKSRSPASAEAP [D10F], with 2.83; and HLYPADFRFTKPKKSRSPASAEAP [D10T], with 2.69.
HLYPADFRFMKPKKSRSPASAEAP [D10M]: the protein stability index came to 2.99.
For the variant HLYPADFRFIKPKKSRSPASAEAP [D10I], the protein stability index came to 1.87.
On to HLYPADFRFKKPKKSRSPASAEAP [D10K], for which the protein stability index worked out at 2.8.
Then HLYPADFRFCKPKKSRSPASAEAP [D10C], with 2.15.
Then HLYPADFRFLKPKKSRSPASAEAP [D10L], with 3.01; and HLYPADFRFPKPKKSRSPASAEAP [D10P], with 2.54; and HLYPADFRFWKPKKSRSPASAEAP [D10W], with 2.92.
Regarding HLYPADFRFEKPKKSRSPASAEAP [D10E], the protein stability index worked out at 3.08.
As for HLYPADFRFRKPKKSRSPASAEAP [D10R], the protein stability index came to 2.71.
Take HLYPADFRFQKPKKSRSPASAEAP [D10Q]: the protein stability index amounted to 2.26.
Regarding HLYPADFRFAKPKKSRSPASAEAP [D10A], the protein stability index was 2.16.
On to HLYPADFRFSKPKKSRSPASAEAP [D10S], for which the protein stability index is 3.22.
With HLYPADFRFNKPKKSRSPASAEAP [D10N], the protein stability index came to 2.39.
In the case of HLYPADFRFVKPKKSRSPASAEAP [D10V] it was 2.62; in that of HLYPADFRFYKPKKSRSPASAEAP [D10Y], 2.87; in that of HLYPAAFRFDKPKKSRSPASAEAP [D6A], 2.12.
Consider HLYPAWFRFDKPKKSRSPASAEAP [D6W], for which the protein stability index stood at 2.87.
On to HLYPASFRFDKPKKSRSPASAEAP [D6S], for which the protein stability index turned out to be 3.17.
Turning to HLYPAQFRFDKPKKSRSPASAEAP [D6Q], the protein stability index amounted to 2.18.
Then HLYPAKFRFDKPKKSRSPASAEAP [D6K], with 2.22; and HLYPAGFRFDKPKKSRSPASAEAP [D6G], with 3.23.
Consider HLYPALFRFDKPKKSRSPASAEAP [D6L], for which the protein stability index worked out at 2.61.
In the case of HLYPAHFRFDKPKKSRSPASAEAP [D6H], the protein stability index was found to be 3.
Take HLYPAIFRFDKPKKSRSPASAEAP [D6I]: the protein stability index was 1.47.
As to HLYPARFRFDKPKKSRSPASAEAP [D6R], the protein stability index was found to be 2.59.
Turning to HLYPAEFRFDKPKKSRSPASAEAP [D6E], the protein stability index stood at 2.1.
For HLYPAPFRFDKPKKSRSPASAEAP [D6P], the protein stability index was 3.19.
HLYPANFRFDKPKKSRSPASAEAP [D6N]: the protein stability index came out at 2.82.
In the case of HLYPAMFRFDKPKKSRSPASAEAP [D6M] it was 1.55; in that of HLYPATFRFDKPKKSRSPASAEAP [D6T], 2.48.
In the case of HLYPACFRFDKPKKSRSPASAEAP [D6C] it was 2.52.
Take HLYPADNRFDKPKKSRSPASAEAP [F7N]: the protein stability index was 4.15.
Regarding HLYPADQRFDKPKKSRSPASAEAP [F7Q], the protein stability index was 4.62.
HLYPADYRFDKPKKSRSPASAEAP [F7Y]: the protein stability index amounted to 3.29.
Regarding HLYPADCRFDKPKKSRSPASAEAP [F7C], the protein stability index stood at 4.29.
Consider HLYPADDRFDKPKKSRSPASAEAP [F7D], for which the protein stability index was determined as 4.63.
Then HLYPADPRFDKPKKSRSPASAEAP [F7P], with 4.24; and HLYPADGRFDKPKKSRSPASAEAP [F7G], with 4.42; and HLYPADIRFDKPKKSRSPASAEAP [F7I], with 3.94.
Regarding HLYPADSRFDKPKKSRSPASAEAP [F7S], the protein stability index came to 4.25.
On to HLYPADKRFDKPKKSRSPASAEAP [F7K], for which the protein stability index was 4.71.
For the variant HLYPADHRFDKPKKSRSPASAEAP [F7H], the protein stability index worked out at 3.98.
Consider HLYPADARFDKPKKSRSPASAEAP [F7A], for which the protein stability index was 4.81.
As for HLYPADLRFDKPKKSRSPASAEAP [F7L], the protein stability index turned out to be 4.49.
For HLYPADERFDKPKKSRSPASAEAP [F7E], the protein stability index worked out at 5.23.
Then HLYPADMRFDKPKKSRSPASAEAP [F7M], with 4.38; and HLYPADWRFDKPKKSRSPASAEAP [F7W], with 2.09; and HLYPADTRFDKPKKSRSPASAEAP [F7T], with 4.25.
HLYPADRRFDKPKKSRSPASAEAP [F7R]: the protein stability index worked out at 4.22.
For the variant HLYPADVRFDKPKKSRSPASAEAP [F7V], the protein stability index worked out at 4.62.
HLYPADFRFDKAKKSRSPASAEAP [P12A]: the protein stability index worked out at 2.83.
In the case of HLYPADFRFDKIKKSRSPASAEAP [P12I] it was 3.72; in that of HLYPADFRFDKDKKSRSPASAEAP [P12D], 3.2; in that of HLYPADFRFDKHKKSRSPASAEAP [P12H], 2.89.
Consider HLYPADFRFDKFKKSRSPASAEAP [P12F], for which the protein stability index turned out to be 3.14.
With HLYPADFRFDKNKKSRSPASAEAP [P12N], the protein stability index worked out at 2.65.
With HLYPADFRFDKGKKSRSPASAEAP [P12G], the protein stability index was determined as 3.02.
In the case of HLYPADFRFDKLKKSRSPASAEAP [P12L] it was 3.25.
Regarding HLYPADFRFDKKKKSRSPASAEAP [P12K], the protein stability index is 2.96.
As for HLYPADFRFDKEKKSRSPASAEAP [P12E], the protein stability index amounted to 3.69.
Then HLYPADFRFDKRKKSRSPASAEAP [P12R], with 2.47.
For HLYPADFRFDKCKKSRSPASAEAP [P12C], the protein stability index came to 2.94.
Regarding HLYPADFRFDKSKKSRSPASAEAP [P12S], the protein stability index is 2.64.
Take HLYPADFRFDKQKKSRSPASAEAP [P12Q]: the protein stability index stood at 3.18.
As for HLYPADFRFDKMKKSRSPASAEAP [P12M], the protein stability index came out at 2.72.
Turning to HLYPADFRFDGPKKSRSPASAEAP [K11G], the protein stability index turned out to be 3.5.
As to HLYPADFRFDEPKKSRSPASAEAP [K11E], the protein stability index came out at 3.01.
On to HLYPADFRFDYPKKSRSPASAEAP [K11Y], for which the protein stability index came to 2.44.
In the case of HLYPADFRFDHPKKSRSPASAEAP [K11H] it was 2.98; in that of HLYPADFRFDVPKKSRSPASAEAP [K11V], 3.52.
HLYPADFRFDAPKKSRSPASAEAP [K11A]: the protein stability index turned out to be 3.14.
For HLYPADFRFDFPKKSRSPASAEAP [K11F], the protein stability index was found to be 2.95.
In the case of HLYPADFRFDIPKKSRSPASAEAP [K11I], the protein stability index was 3.56.
As to HLYPADFRFDMPKKSRSPASAEAP [K11M], the protein stability index stood at 2.62.
Then HLYPADFRFDLPKKSRSPASAEAP [K11L], with 2.72; and HLYPADFRFDDPKKSRSPASAEAP [K11D], with 3.23.
Then HLYPADFRFDSPKKSRSPASAEAP [K11S], with 3.32; and HLYPADFRFDCPKKSRSPASAEAP [K11C], with 3.21; and HLYPADFRFDQPKKSRSPASAEAP [K11Q], with 3.24.
Regarding HLYPADFRFDWPKKSRSPASAEAP [K11W], the protein stability index stood at 2.11.
In the case of HLYPADFRFDPPKKSRSPASAEAP [K11P] it was 2.87; in that of HLYPADFRFDTPKKSRSPASAEAP [K11T], 3.02; in that of HLYPADFRFDNPKKSRSPASAEAP [K11N], 3.37.
For the variant HLYPADFRFDRPKKSRSPASAEAP [K11R], the protein stability index was found to be 2.89.
Consider HYYPADFRFDKPKKSRSPASAEAP [L2Y], for which the protein stability index is 3.84.
Regarding HWYPADFRFDKPKKSRSPASAEAP [L2W], the protein stability index came out at 2.87.
Regarding HSYPADFRFDKPKKSRSPASAEAP [L2S], the protein stability index was found to be 4.63.
Regarding HTYPADFRFDKPKKSRSPASAEAP [L2T], the protein stability index was 4.64.
For the variant HRYPADFRFDKPKKSRSPASAEAP [L2R], the protein stability index worked out at 4.1.
On to HVYPADFRFDKPKKSRSPASAEAP [L2V], for which the protein stability index turned out to be 2.69.
